# Laboratory results from article PMC12880746.
# Legend:
# [1] = target: CspC-CPD-His6 (Clostridioides difficile); assay: SEC; elution fraction of a CspC-CPD-His6:CspA co-affinity purification (proteins co-expressed in E. coli) on Superdex 200 Increase 10/300 GL; 200 mM NaCl, 10 mM Tris-HCl pH 7.5, 5% glycerol, 1 mM dithiothreitol; fractions on SDS-PAGE; complex peak re-run on SEC; also run with TA and CaCl2 without difference
# [2] = target: CspB-His6 (Clostridioides difficile); assay: SEC; individually Ni-affinity-purified Csp-His6 proteins on Superdex 200 Increase 10/300 GL; 200 mM NaCl, 10 mM Tris-HCl pH 7.5, 5% glycerol, 1 mM dithiothreitol; apparent MW from gel filtration standard
# [3] = target: CspA-His6 (Clostridioides difficile); assay: as above
substance,measurement,setting,value
untagged CspA (CspA_(583-1132)) (domain or fragment),stoichiometry N (ratio CspA:CspC-CPD-His6),[1],1
CspB-His6 (domain or fragment),stoichiometry N,[2],2
CspA-His6 (domain or fragment),stoichiometry N,[3],2
